First the molecules themselves.
T1: Activin A (Homo sapiens (Human), UniProt P08476 311-426)
T1 sequence: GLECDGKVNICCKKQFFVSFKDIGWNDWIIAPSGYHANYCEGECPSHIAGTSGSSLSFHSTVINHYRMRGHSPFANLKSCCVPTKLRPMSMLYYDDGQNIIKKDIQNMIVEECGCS

B1: ActRIIB-IgG1 Fc E28A, linker 2(GGGGS) (Fc fusion)
chain: SGRGEAETRACIYYNANWELERTNQSGLERCEGEQDKRLHCYASWRNSSGTIELVKKGCWLDDFNCYDRQECVATEENPQVYFCCCEGNFCNERFTHLPEAGGPEVTYEPPPTAPTGGGGSGGGGSAPELLGGPSVFLFPPKPKDILMISRTPEVTCVVVDVSHEDPEVKFNWYVGGVEVHNAKTKPREEQYNSTYRVVSVLTVLHQDWLNGKEYKCKVSNKALPAPIEKTISKAKGQPREPQVYTLPPSRDELTKNQVSLTCLVKGFYPSDIAVEWESNGQPENNYKTTPPVLDSDGSFFLYSKLTVDKSRWQQGNVFSCSVMHEALHNHYTQKSLSLSPGK
notes: Tested from conditioned media
B2: ActRIIB-IgG1 Fc wild type, linker GGGGS (Fc fusion)
chain: SGRGEAETRECIYYNANWELERTNQSGLERCEGEQDKRLHCYASWRNSSGTIELVKKGCWLDDFNCYDRQECVATEENPQVYFCCCEGNFCNERFTHLPEAGGPEVTYEPPPTAPTGGGGSAPELLGGPSVFLFPPKPKDILMISRTPEVTCVVVDVSHEDPEVKFNWYVGGVEVHNAKTKPREEQYNSTYRVVSVLTVLHQDWLNGKEYKCKVSNKALPAPIEKTISKAKGQPREPQVYTLPPSRDELTKNQVSLTCLVKGFYPSDIAVEWESNGQPENNYKTTPPVLDSDGSFFLYSKLTVDKSRWQQGNVFSCSVMHEALHNHYTQKSLSLSPGK
notes: Tested from conditioned media
B3: ActRIIB-IgG1 Fc E28A, linker GGGGS (Fc fusion)
chain: B2 chain with E10A
notes: Tested from conditioned media
B4: ActRIIB5-IgG1 Fc wild type, no linker (Fc fusion)
chain: SGRGEAETRECIYYNANWELERTNQSGLERCEGEQDKRLHCYASWRNSSGTIELVKKGCWLDDFNCYDRQECVATEENPQVYFCCCEGNFCNERFTHLPEAGGPEGPWASTTIPSGGPEATAAAGDQGSGALWLCLEGPAHEAPELLGGPSVFLFPPKPKDILMISRTPEVTCVVVDVSHEDPEVKFNWYVGGVEVHNAKTKPREEQYNSTYRVVSVLTVLHQDWLNGKEYKCKVSNKALPAPIEKTISKAKGQPREPQVYTLPPSRDELTKNQVSLTCLVKGFYPSDIAVEWESNGQPENNYKTTPPVLDSDGSFFLYSKLTVDKSRWQQGNVFSCSVMHEALHNHYTQKSLSLSPGK
notes: Tested from conditioned media
B5: ActRIIB5-IgG1 Fc E28A, no linker (Fc fusion)
chain: B4 chain with E10A
notes: Tested from conditioned media
B6: ActRIIB5-IgG1 Fc R40A, linker GGGGS (Fc fusion)
chain: SGRGEAETRECIYYNANWELEATNQSGLERCEGEQDKRLHCYASWRNSSGTIELVKKGCWLDDFNCYDRQECVATEENPQVYFCCCEGNFCNERFTHLPEAGGPEGPWASTTIPSGGPEATAAAGDQGSGALWLCLEGPAHEGGGGSAPELLGGPSVFLFPPKPKDILMISRTPEVTCVVVDVSHEDPEVKFNWYVGGVEVHNAKTKPREEQYNSTYRVVSVLTVLHQDWLNGKEYKCKVSNKALPAPIEKTISKAKGQPREPQVYTLPPSRDELTKNQVSLTCLVKGFYPSDIAVEWESNGQPENNYKTTPPVLDSDGSFFLYSKLTVDKSRWQQGNVFSCSVMHEALHNHYTQKSLSLSPGK
notes: Tested from conditioned media
B7: ActRIIB5-IgG1 Fc E28A, linker GGGGS (Fc fusion)
chain: B6 chain with E10A, A22R
notes: Tested from conditioned media
B8: ActRIIB5-IgG1 Fc E28W R40A, linker GGGGS (Fc fusion)
chain: B6 chain with E10W
notes: Tested from conditioned media
B9: ActRIIB-IgG1 Fc R40S, linker GGGGS (Fc fusion)
chain: B2 chain with R22S
notes: Tested from conditioned media
B10: ActRIIB-IgG1 Fc R40T, linker GGGGS (Fc fusion)
chain: B2 chain with R22T
notes: Tested from conditioned media
B11: ActRIIB-IgG1 Fc R40P, linker GGGGS (Fc fusion)
chain: B2 chain with R22P
notes: Tested from conditioned media
B12: ActRIIB-IgG1 Fc R40V, linker GGGGS (Fc fusion)
chain: B2 chain with R22V
notes: Tested from conditioned media
B13: ActRIIB-IgG1 Fc R40Y, linker GGGGS (Fc fusion)
chain: B2 chain with R22Y
notes: Tested from conditioned media
B14: ActRIIB-IgG1 Fc wild type, no linker (Fc fusion)
chain: SGRGEAETRECIYYNANWELERTNQSGLERCEGEQDKRLHCYASWRNSSGTIELVKKGCWLDDFNCYDRQECVATEENPQVYFCCCEGNFCNERFTHLPEAGGPEVTYEPPPTAPTAPELLGGPSVFLFPPKPKDILMISRTPEVTCVVVDVSHEDPEVKFNWYVGGVEVHNAKTKPREEQYNSTYRVVSVLTVLHQDWLNGKEYKCKVSNKALPAPIEKTISKAKGQPREPQVYTLPPSRDELTKNQVSLTCLVKGFYPSDIAVEWESNGQPENNYKTTPPVLDSDGSFFLYSKLTVDKSRWQQGNVFSCSVMHEALHNHYTQKSLSLSPGK
notes: Tested from conditioned media
B15: ActRIIB-IgG1 Fc R40A, no linker (Fc fusion)
chain: B14 chain with R22A
notes: Tested from conditioned media
B16: ActRIIB-IgG1 Fc E28A, no linker (Fc fusion)
chain: B14 chain with E10A
notes: Tested from conditioned media

Substitutions are numbered along the chain they refer to. Numbers in names are those of the source. Bounds are passed on as bounds.

Sequence of Myostatin (human) (O14793 267-375 limits assumed): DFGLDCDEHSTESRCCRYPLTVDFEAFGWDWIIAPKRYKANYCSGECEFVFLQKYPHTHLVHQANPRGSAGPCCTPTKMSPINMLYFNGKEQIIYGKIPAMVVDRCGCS

For one assay, the target named is T1, Activin A. Put plainly: Biacore SPR grade, CHO stable conditioned media, 20 nM activin A. On the procedure:
(§1) Qualitative BIAcore® Assay. E28 and R40 were substituted respectively with other natural amino acids in fusions with IgG1 Fc as described above. Each vActRIIB-IgG1Fc sample from conditioned media was captured on goat anti-human IgG1 Fc antibody (Jackson Immuno Research, cat#109-005-098, lot 63550) coated CMS surface. 20 nM of Activin A was injected over captured sample surfaces using BIACore2000 (BIACore Life Sciences, Piscataway, N.J.). The resulting sensorgrams were normalized to the captured RL (500 RU) of vActRIIB-IgG1Fc variants. The normalized binding response (RU) for some variants are shown in Table 2, and is further described below. Relative binding affinity for activin was also determined by Biacore measurements using conditioned media obtained from mammalian cell expression. Activin A (20 nM) was used to capture soluble receptor polypeptide in the conditioned media and measured SPR signals were normalized. Normalized SPR of +++++: >60, ++++:40-60, +++:20-40, ++:10-20, +: 5-10, −: <5.
On to B1, for which the “Normalized SPR” value was 20 to 40 ru.

Turning to B2, the “Normalized SPR” value was 40 to 60 ru. On to B3, for which the “Normalized SPR” value was 20 to 40 ru. In the case of B4, the “Normalized SPR” value lay within 20 to 40 ru.

With B5, the “Normalized SPR” value was 20 to 40 ru. For B6, the “Normalized SPR” value lay within 20 to 40 ru. Still for that read-out and setting: under B7 stands 20 to 40 ru; under B8, 40 to 60 ru.

The next assay concerns the target T1, Activin A. The assay can be described thus: Biacore SPR grade, COS transient conditioned media. On the procedure:
as §1
Background: Surface plasmon resonance follows binding to a sensor surface in real time, without labels.
For the molecule B9, the “normalized SPR signal” value is less than 5 ru. Same read-out and setting: with B10 the figure was less than 5 ru; with B11, less than 5 ru; with B12, less than 5 ru.

In the case of B13, the “normalized SPR signal” value is less than 5 ru.

Another assay addresses T1, Activin A. The assay can be described thus: Biacore SPR grade, COS transient conditioned media, 20 nM activin A. How it is done: as §1
Regarding B2, the “normalized SPR signal” value lay within 5 to 10 ru. For the molecule B3, the “normalized SPR signal” value lay within 5 to 10 ru.

For another assay, the target named is T1, Activin A. The assay can be described thus: Biacore SPR grade, COS stable conditioned media, 20 nM activin A. On the procedure: as §1
Consider B14, for which the “Normalized SPR” value was 10 to 20 ru.

Take B15: the “Normalized SPR” value was 10 to 20 ru. Turning to B16, the “Normalized SPR” value lay in the range of 10 to 20 ru.

A further assay concerns the target Myostatin (human) (UniProt O14793). Put plainly: cell-based or functional assay.
The molecule “hActRIIB-hIgG2Fc (SEQ ID NO: 89) (Fc fusion)” had an IC50 (nM) for myostatin cell based assay, C2C12/pMARE-luc, 4 nM myostatin of 1.1 nM. “hActRIIB-hIgG2Fc (E28W) (SEQ ID NO: 91) (Fc fusion)” yielded an IC50 (nM) for myostatin cell based assay, C2C12/pMARE-luc, 4 nM myostatin of 0.9 nM.

Take “hActRIIB-hIgG2Fc (E28Y) (SEQ ID NO: 93) (Fc fusion)”: the IC50 (nM) for myostatin cell based assay, C2C12/pMARE-luc, 4 nM myostatin was found to be 1 nM.

The values are drawn from patent publication US20130288983A1 (Amgen, published 2013).
